Assays:
[1] = molecular target: Lgr5 (endogenous, or expression construct whose tag is not stated) (human) (UniProt O75473); test: TAP (anti-FLAG, anti-HA) + mass spectrometry, bait stably expressed in LS174T cells, Exp 2, prey LGR5
[2] = molecular target: Frz5 (endogenous, LS174T cells) (human) (UniProt Q13467); test: TAP (anti-FLAG, anti-HA) + mass spectrometry, bait stably expressed in LS174T cells, Exp 2, prey Frzd5
[3] = molecular target: Frz7 (endogenous, LS174T cells) (human) (UniProt O75084); test: TAP (anti-FLAG, anti-HA) + mass spectrometry, bait stably expressed in LS174T cells, Exp 2, prey Frzd7
[4] = molecular target: LRP6 (endogenous) (human) (UniProt O75581); test: TAP (anti-FLAG, anti-HA) + mass spectrometry, bait stably expressed in LS174T cells, Exp 2, prey LRP6
[5] = molecular target: Frz6 (endogenous, LS174T cells) (human) (UniProt O60353); test: TAP (anti-FLAG, anti-HA) + mass spectrometry, bait stably expressed in LS174T cells, Exp 3, prey Frzd6
[6] = molecular target: Frz6 (endogenous, LS174T cells) (human) (UniProt O60353); test: TAP (anti-FLAG, anti-HA) + mass spectrometry, bait stably expressed in LS174T cells, Exp 4, prey Frzd6
[7] = molecular target: Frz6 (endogenous, LS174T cells) (human) (UniProt O60353); test: TAP (anti-FLAG, anti-HA) + mass spectrometry, bait stably expressed in LS174T cells, Exp 5, prey Frzd6
[8] = molecular target: LRP6 (endogenous) (human) (UniProt O75581); test: TAP (anti-FLAG, anti-HA) + mass spectrometry, bait stably expressed in LS174T cells, Exp 4, prey LRP6
[9] = molecular target: Frz6 (endogenous, LS174T cells) (human) (UniProt O60353); test: TAP (anti-FLAG, anti-HA) + mass spectrometry, bait stably expressed in LS174T cells, Exp 6, prey Frzd6
[10] = molecular target: LRP6 (endogenous) (human) (UniProt O75581); test: TAP (anti-FLAG, anti-HA) + mass spectrometry, bait stably expressed in LS174T cells, Exp 5, prey LRP6
[11] = molecular target: LRP5 (endogenous) (human) (UniProt O75197); test: TAP (anti-FLAG, anti-HA) + mass spectrometry, bait stably expressed in LS174T cells, Exp 6, prey LRP5
[12] = molecular target: LRP6 (endogenous) (human) (UniProt O75581); test: TAP (anti-FLAG, anti-HA) + mass spectrometry, bait stably expressed in LS174T cells, Exp 3, prey LRP6
[13] = molecular target: LRP5 (endogenous) (human) (UniProt O75197); test: TAP (anti-FLAG, anti-HA) + mass spectrometry, bait stably expressed in LS174T cells, Exp 5, prey LRP5
[14] = molecular target: LRP5 (endogenous) (human) (UniProt O75197); test: TAP (anti-FLAG, anti-HA) + mass spectrometry, bait stably expressed in LS174T cells, Exp 4, prey LRP5
[15] = molecular target: Lgr4 (endogenous, or expression construct whose tag is not stated) (human) (UniProt Q9BXB1); test: cell-based or functional assay
[16] = molecular target: LRP5 (endogenous) (human) (UniProt O75197); test: TAP (anti-FLAG, anti-HA) + mass spectrometry, bait stably expressed in LS174T cells, Exp 7, prey LRP5
[17] = molecular target: Lgr4 (endogenous, or expression construct whose tag is not stated) (human) (UniProt Q9BXB1); test: TAP (anti-FLAG, anti-HA) + mass spectrometry, bait stably expressed in LS174T cells, Exp 7, prey LGR4
[18] = molecular target: LRP6 (endogenous) (human) (UniProt O75581); test: TAP (anti-FLAG, anti-HA) + mass spectrometry, bait stably expressed in LS174T cells, Exp 7, prey LRP6
[19] = molecular target: Lgr5 (endogenous, or expression construct whose tag is not stated) (human) (UniProt O75473); test: TAP (anti-FLAG, anti-HA) + mass spectrometry, bait stably expressed in LS174T cells, Exp 7, prey LGR5

Chain of Lgr5 (endogenous, or expression construct whose tag is not stated) (human) (O75473 22-907): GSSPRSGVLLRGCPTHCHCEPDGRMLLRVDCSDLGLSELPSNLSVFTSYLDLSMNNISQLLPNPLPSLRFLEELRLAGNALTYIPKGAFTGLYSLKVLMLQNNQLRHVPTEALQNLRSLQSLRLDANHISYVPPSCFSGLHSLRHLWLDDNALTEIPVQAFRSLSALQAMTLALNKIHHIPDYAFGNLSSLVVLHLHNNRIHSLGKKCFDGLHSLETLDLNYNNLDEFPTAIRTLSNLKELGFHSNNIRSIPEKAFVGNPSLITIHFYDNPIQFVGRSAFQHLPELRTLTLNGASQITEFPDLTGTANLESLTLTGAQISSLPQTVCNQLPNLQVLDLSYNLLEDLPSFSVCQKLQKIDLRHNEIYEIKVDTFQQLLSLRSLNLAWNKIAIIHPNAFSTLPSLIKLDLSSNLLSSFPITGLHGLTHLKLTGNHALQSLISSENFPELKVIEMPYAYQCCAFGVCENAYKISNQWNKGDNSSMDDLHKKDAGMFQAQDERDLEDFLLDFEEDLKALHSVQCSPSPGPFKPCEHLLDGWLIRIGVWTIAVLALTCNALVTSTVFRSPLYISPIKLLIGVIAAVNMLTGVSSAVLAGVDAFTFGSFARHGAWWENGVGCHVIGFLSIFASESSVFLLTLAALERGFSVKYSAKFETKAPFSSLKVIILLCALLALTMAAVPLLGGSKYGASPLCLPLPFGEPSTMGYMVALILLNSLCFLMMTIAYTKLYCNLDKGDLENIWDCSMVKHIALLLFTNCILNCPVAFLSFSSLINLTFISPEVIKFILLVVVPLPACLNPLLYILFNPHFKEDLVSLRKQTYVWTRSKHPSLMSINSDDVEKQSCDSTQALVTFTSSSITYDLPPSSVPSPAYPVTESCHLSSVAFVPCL
Chain of LRP6 (endogenous) (human) (O75581 20-1613): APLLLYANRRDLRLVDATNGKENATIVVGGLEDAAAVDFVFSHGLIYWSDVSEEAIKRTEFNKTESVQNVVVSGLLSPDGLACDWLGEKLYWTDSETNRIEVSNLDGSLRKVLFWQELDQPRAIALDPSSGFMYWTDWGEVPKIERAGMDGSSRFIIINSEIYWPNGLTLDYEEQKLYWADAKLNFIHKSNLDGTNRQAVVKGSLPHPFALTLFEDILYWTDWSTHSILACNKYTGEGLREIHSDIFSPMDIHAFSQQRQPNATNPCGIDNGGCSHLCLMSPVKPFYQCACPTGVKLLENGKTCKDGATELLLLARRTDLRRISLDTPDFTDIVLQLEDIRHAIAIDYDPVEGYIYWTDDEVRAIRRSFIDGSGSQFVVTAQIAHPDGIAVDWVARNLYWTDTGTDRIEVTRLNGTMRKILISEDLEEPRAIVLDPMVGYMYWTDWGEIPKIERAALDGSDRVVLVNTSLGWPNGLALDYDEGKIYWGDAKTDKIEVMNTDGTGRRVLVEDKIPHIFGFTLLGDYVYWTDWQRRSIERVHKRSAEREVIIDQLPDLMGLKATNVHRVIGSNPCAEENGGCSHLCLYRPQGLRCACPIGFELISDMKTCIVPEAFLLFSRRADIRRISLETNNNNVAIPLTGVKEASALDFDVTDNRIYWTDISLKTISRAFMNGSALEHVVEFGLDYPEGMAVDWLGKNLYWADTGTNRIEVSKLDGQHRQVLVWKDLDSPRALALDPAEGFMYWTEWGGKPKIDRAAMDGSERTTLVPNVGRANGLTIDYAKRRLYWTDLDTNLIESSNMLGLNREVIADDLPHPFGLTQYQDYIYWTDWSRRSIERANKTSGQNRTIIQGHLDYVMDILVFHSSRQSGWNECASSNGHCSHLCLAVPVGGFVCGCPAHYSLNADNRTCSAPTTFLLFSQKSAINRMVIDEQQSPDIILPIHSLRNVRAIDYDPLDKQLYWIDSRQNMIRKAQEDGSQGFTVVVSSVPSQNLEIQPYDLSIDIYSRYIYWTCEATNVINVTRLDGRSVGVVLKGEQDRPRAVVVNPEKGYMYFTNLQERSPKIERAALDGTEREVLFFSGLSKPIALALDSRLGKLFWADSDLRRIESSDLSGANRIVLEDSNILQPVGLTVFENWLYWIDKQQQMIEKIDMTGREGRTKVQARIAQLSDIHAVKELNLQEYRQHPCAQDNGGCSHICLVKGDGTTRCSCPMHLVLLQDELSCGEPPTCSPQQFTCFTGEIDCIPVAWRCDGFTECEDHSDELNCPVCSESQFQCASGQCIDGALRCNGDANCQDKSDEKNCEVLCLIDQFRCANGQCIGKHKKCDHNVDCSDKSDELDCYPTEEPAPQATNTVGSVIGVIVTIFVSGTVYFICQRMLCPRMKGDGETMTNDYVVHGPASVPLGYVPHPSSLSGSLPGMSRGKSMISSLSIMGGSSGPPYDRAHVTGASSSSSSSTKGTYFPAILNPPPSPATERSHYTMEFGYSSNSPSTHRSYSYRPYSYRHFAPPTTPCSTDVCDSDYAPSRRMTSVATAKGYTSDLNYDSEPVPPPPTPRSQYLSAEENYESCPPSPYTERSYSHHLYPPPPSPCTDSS
Chain of LRP5 (endogenous) (human) (O75197 32-1615): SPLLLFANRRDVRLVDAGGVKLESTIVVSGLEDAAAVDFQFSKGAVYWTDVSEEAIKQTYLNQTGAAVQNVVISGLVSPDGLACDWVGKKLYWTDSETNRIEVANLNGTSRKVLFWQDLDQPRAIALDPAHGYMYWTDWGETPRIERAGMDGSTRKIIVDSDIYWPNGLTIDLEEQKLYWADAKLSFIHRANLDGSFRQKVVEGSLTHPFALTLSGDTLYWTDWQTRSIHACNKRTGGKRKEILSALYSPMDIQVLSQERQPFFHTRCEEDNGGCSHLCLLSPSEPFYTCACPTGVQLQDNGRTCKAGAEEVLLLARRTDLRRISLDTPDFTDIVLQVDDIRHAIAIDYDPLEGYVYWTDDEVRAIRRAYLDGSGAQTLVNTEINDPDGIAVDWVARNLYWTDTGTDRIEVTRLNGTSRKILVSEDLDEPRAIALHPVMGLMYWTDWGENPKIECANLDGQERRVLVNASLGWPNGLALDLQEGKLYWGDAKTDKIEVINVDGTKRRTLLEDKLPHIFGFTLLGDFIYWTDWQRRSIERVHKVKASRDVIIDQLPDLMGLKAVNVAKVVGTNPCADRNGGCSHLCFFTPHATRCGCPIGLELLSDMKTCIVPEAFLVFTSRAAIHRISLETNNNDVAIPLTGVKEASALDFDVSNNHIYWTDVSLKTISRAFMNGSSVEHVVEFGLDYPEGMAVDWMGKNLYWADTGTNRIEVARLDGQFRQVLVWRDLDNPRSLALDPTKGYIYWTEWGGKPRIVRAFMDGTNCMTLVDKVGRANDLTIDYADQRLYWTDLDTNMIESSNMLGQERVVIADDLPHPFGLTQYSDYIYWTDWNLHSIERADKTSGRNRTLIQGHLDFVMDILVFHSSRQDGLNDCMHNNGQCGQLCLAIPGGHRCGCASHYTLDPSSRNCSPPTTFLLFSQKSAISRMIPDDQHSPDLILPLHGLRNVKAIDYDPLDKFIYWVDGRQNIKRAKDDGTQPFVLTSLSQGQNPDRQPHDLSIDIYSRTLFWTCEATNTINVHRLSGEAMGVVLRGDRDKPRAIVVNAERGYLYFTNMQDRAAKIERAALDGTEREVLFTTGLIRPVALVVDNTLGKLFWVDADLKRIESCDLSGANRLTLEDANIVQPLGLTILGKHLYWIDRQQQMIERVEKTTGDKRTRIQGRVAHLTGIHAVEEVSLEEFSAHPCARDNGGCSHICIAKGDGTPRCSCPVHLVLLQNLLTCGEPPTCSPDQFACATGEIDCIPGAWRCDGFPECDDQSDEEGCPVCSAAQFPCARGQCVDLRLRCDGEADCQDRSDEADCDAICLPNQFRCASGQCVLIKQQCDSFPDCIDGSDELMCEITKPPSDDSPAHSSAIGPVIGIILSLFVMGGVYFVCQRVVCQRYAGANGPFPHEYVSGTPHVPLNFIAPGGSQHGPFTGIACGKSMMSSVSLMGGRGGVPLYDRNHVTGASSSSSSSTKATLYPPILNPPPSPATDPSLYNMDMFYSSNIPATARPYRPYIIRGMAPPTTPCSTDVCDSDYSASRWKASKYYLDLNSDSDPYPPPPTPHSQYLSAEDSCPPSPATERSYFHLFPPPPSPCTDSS
Chain of Frz6 (endogenous, LS174T cells) (human) (O60353 19-706): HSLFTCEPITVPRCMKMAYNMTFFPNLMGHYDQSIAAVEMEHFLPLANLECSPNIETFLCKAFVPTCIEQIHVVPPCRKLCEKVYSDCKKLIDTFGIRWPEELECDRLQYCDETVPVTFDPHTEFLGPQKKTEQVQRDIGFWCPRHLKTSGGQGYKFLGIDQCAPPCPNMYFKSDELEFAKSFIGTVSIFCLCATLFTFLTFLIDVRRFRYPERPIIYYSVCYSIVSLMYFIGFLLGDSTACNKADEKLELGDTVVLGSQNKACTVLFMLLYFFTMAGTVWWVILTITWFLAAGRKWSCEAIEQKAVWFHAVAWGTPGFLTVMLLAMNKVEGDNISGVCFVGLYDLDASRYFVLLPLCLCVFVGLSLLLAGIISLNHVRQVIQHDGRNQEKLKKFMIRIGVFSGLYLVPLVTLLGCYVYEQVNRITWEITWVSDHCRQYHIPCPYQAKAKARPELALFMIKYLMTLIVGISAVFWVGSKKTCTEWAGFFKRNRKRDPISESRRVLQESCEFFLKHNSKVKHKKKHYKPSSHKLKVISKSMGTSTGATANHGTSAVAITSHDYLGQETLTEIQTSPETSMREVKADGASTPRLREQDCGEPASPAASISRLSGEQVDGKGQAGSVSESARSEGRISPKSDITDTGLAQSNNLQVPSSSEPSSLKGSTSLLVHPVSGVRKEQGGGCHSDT

Which results are given for “FLAG/HA-tagged Lgr4 (from UniProt Q9BXB1 25-951) (receptor)”?
# unique peptides [1]: 7; MASCOT Protein score (MudPit) [1]: 62; assigned spectra [1]: 10; # unique peptides [2]: 1; MASCOT Protein score (MudPit) [2]: 22; assigned spectra [2]: 1; # unique peptides [3]: 1; MASCOT Protein score (MudPit) [3]: 87; assigned spectra [3]: 4; # unique peptides [4]: 3; MASCOT Protein score (MudPit) [4]: 32; assigned spectra [4]: 3

What does the source list for “FLAG/HA-tagged Lgr5 (from UniProt O75473 22-907) (receptor)”?
# unique peptides [5]: 1; MASCOT Protein score (MudPit) [5]: 53; assigned spectra [5]: 1; # unique peptides [6]: 1; MASCOT Protein score (MudPit) [6]: 94; assigned spectra [6]: 2; # unique peptides [7]: 6; MASCOT Protein score (MudPit) [7]: 193; assigned spectra [7]: 11; # unique peptides [8]: 2; MASCOT Protein score (MudPit) [8]: 43; assigned spectra [8]: 2; # unique peptides [9]: 5; MASCOT Protein score (MudPit) [9]: 140; assigned spectra [9]: 8; # unique peptides [10]: 6; MASCOT Protein score (MudPit) [10]: 91; assigned spectra [10]: 6; # unique peptides [11]: 1; MASCOT Protein score (MudPit) [11]: 41; assigned spectra [11]: 1; # unique peptides [12]: 3; MASCOT Protein score (MudPit) [12]: 71; assigned spectra [12]: 3; # unique peptides [13]: 3; MASCOT Protein score (MudPit) [13]: 122; assigned spectra [13]: 3; # unique peptides [14]: 2; MASCOT Protein score (MudPit) [14]: 91; assigned spectra [14]: 3

For “Rspo-1 (as added in the TOPflash assay of FIG. 5B) (from UniProt Q2MKA7 21-263) (ligand)”, which TOPFlash activity, Wnt3A with Rspo-1 against Wnt3A alone, HEK293T cells [15] is on record?
The TOPFlash activity, Wnt3A with Rspo-1 against Wnt3A alone, HEK293T cells was 12 fold.

How did the # unique peptides [16] turn out when “tagged Frizzled5 (Frz5) (from UniProt Q13467 27-585) (receptor)” was run?
Its # unique peptides is 3.

What about the MASCOT Protein score (MudPit) [16] of the same substance?
The MASCOT Protein score (MudPit) was 166.

And the assigned spectra [16]?
Its assigned spectra is 5.

What about the # unique peptides [17] of the same substance?
Its # unique peptides is 10.

What about the MASCOT Protein score (MudPit) [17] of the same substance?
Its MASCOT Protein score (MudPit) is 456.

What about the assigned spectra [17] of the same substance?
The assigned spectra was 30.

And the # unique peptides [18]?
Its # unique peptides is 10.

What about the MASCOT Protein score (MudPit) [18] of the same substance?
The MASCOT Protein score (MudPit) was 279.

What about the assigned spectra [18] of the same substance?
Its assigned spectra is 14.

What about the # unique peptides [19] of the same substance?
Its # unique peptides is 2.

What about the MASCOT Protein score (MudPit) [19] of the same substance?
Its MASCOT Protein score (MudPit) is 33.

And the assigned spectra [19]?
Its assigned spectra is 2.
